Laboratory results taken from paper PMC8403083.

How the values were obtained:
enzyme kinetics [1] = substrate: Nc1ccn([C@@H]2O[C@H](COP(=O)(O)O)[C@@H](O)[C@H]2O)c(=O)n1; experiment: enzyme kinetics; format: biochemical, Homo sapiens
enzyme kinetics [2] = substrate: Nc1ncnc2c1ncn2[C@@H]1O[C@H](COP(=O)(O)O)[C@@H](O)[C@H]1O; experiment: enzyme kinetics; format: biochemical, Homo sapiens

B1: CD73 (5ʹ-Nucleotidase) (Homo sapiens) (protein)
chain: WELTILHTNDVHSRLEQTSEDSSKCVNASRCMGGVARLFTKVQQIRRAEPNVLLLDAGDQYQGTIWFTVYKGAEVAHFMNALRYDAMALGNHEFDNGVEGLIEPLLKEAKFPILSANIKAKGPLASQISGLYLPYKVLPVGDEVVGIVGYTSKETPFLSNPGTNLVFEDEITALQPEVDKLKTLNVNKIIALGHSGFEMDKLIAQKVRGVDVVVGGHSNTFLYTGNPPSKEVPAGKYPFIVTSDDGRKVPVVQAYAFGKYLGYLKIEFDERGNVISSHGNPILLNSSIPEDPSIKADINKWRIKLDNYSTQELGKTIVYLDGSSQSCRFRECNMGNLICDAMINNNLRHTDEMFWNHVSMCILNGGGIRSPIDERNNGTITWENLAAVLPFGGTFDLVQLKGSTLKKAFEHSVHRYGQSTGEFLQVGGIHVVYDLSRKPGDRVVKLDVLCTKCRVPSYDPLKMDEVYKVILPNFLANGGDGFQMIKDELLRHDSGDQDINVVSTYISKMKVIYPAVEGRIK
**Q.** What does the source list for B1?
**A.** Km (enzyme kinetics [1]): 45 µM; Km (enzyme kinetics [2]): 2.7 µM
